kcat and Km data for 3 substances are collected here from patent US8349318B2, “Use of specifically engineered enzymes to enhance the efficacy of prodrugs” (The Board of Trustees of the University of Illinois, priority 2008, dated 2013).

Series [1] concerns T1, Cc1cn([C@@H]2C[C@@H](O)[C@H](CO)O2)c(=O)[nH]c1=O.
T1 construct: made in house
The series can be described thus: Kinetic assay of nucleoside phosphorylation by R104Q-D133A dCK. The series is classed as biochemical, human. Conditions: other: nucleoside 200 uM, 1 mM ATP.

In series [2] the test system is Nc1ccn([C@@H]2O[C@H](CO)[C@@H](O)C2(F)F)c(=O)n1. The series can be described thus: purified protein, by the assay type. As to conditions: other: Table 9; pH 7.5; 37.0 °C.
In series [3] the test system is Nc1nc2c(ncn2[C@H]2C[C@H](O)[C@@H](CO)O2)c(=O)[nH]1. The series can be described thus: purified protein, by the assay type. As to conditions: other: Table 9; pH 7.5; 37.0 °C.
Series [4] concerns Cc1cn([C@@H]2C[C@@H](O)[C@H](CO)O2)c(=O)[nH]c1=O. The series can be described thus: purified protein, by the assay type. Conditions: other: Table 9; pH 7.5; 37.0 °C.

Sequence of Wild Type dCK (Homo sapiens) (chain, as listed by the source): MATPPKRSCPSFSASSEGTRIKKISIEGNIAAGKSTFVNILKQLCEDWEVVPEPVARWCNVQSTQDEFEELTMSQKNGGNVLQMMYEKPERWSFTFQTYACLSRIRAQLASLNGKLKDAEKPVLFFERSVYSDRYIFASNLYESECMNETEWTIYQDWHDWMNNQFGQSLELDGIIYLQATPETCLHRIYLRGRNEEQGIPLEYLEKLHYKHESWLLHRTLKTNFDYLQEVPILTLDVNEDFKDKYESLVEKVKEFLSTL
Sequence of dCK R104L/D133A (Homo sapiens; D133A/R104L) (chain, as listed by the source R104L D133A D133A R104L): as the sequence (chain, as listed by the source) above, with R104L, D133A counted along it
Sequence of R104Q-D133A dCK (Homo sapiens; D133A/R104Q) (chain, as listed by the source R104Q D133A D133A R104Q): as the sequence (chain, as listed by the source) above, with R104Q, D133A counted along it

In the case of “R104Q-D133A dCK (Homo sapiens; D133A/R104Q)”, the kcat in series [1] amounted to 0.24 s⁻¹.
For the substance Wild Type dCK (Homo sapiens), in series [2], the Michaelis constant (Km) was found to be 16.1 ± 3.5 µM and the kcat worked out at 0.39 ± 0.03 s⁻¹. Further, in series [3], the Michaelis constant (Km) was determined as 231.0 ± 20.0 µM and the turnover number (kcat) came out at 2.60 ± 0.10 s⁻¹.
Consider “dCK R104L/D133A (Homo sapiens; D133A/R104L)”, for which the Michaelis-Menten constant (Km) in series [2] worked out at 33.8 ± 5.3 µM; in series [3], 2266 ± 823 µM; in series [4] it was 17.8 ± 1.6 µM. The results for the kcat in series [2], in series [3] and in series [4] were 2.01 ± 0.08 s⁻¹, 3.66 ± 0.01 s⁻¹ and 1.33 ± 0.01 s⁻¹, respectively.

What is called kcat is the number of substrate molecules converted per active site and unit of time at saturation. The Km is the substrate concentration at which the rate is half of its maximum.
